The DeepSol protein solubility set

Test: soluble on expression in E. coli; label from the status in PepcDB or PDB records

Row | Sequence | soluble on expression in E. coli
1 | MSLFIDKQTVERHFSKSAHLYDGVNHVQRKMAHRLVQLLDEKRRDAKDEPRAILDIGCGTGWLTRECLKSFPQATIDAVDLSKQMLEVAEKNVSSHPNVQFIQGDIEKMVREKPSAKTYDVIVANAVFQWLDKPTETVAQLRSWLKPNGLLLFSTFGPDTFYELHDSFQLAAKQLGIIDERRGLDYLSKTEWKRTLDGLFAELTIHEEKAIESYATVEQFLHTVKKMGATYSQSSRPLSKRYYQLMKEIYEQRYRTEDSIPATYDCLYVLCQAEGHHHHHH | soluble
2 | MSLFILKNVTAVQLEPTLVLEGVDIAIEGSLIKAVGPNLRALYPQANYREMGGKLVMPGIVCAHNHFYSGLSRGIMANIAPCPDFISTLKNLWWRLDRALDEESLYYSGLICSLEAIKSGCSAVIDHHASPNFIKGSLNVLRKGFVEAGLRGMTCFETTDRNGGLAELQAGVEENILFAQAIDAAKAKGREPYLVEAHIGAHAPFTVPDEGLAMLREAVQVTGRGLHIHVAEDRYDMAHGHHHHGKEPIARLDEFDLVDSKTLIAHGIYLSPADIELLNSRDAFLVHNARSNMNNHVGYNMHLPEYRNLALGTDGIGSDMLEELKFAYFKHKDAGGALWPDSFARFLWNGNTLLERNFGAKFGRLEPGYKADLTICDYAAPTPLAPRNLGGHLAFGMGSSSVNSVMVEGRMVYQDREFAFDVEPIYQQASKVASRLWQRMDQLAEGHHHHHH | soluble
3 | MSLFIRDNHLHTHHSYDSDANFTDYLTHFDGEIVTTEHYDLSNPYTKQDDVPDYESYSHEVEKLNLKYGNRIKRGIEIGYYQPRESDILDFLDGKDYDLKLLSVHHNGVNDYLDDEVAEMDKANIIQEYLDKLEYAVGRVDADVLAHFDYGFRLFDVTVDELKAYENQLKRIFKKMIANDLAFELNSKSMYLYHHEGLYRYVLALVKDLGCRKYSIGSDGHKLEHFRLNFDKIQELLREFEITEDMEGHHHHHH | not soluble
4 | MSLFLITNRKLVNREKYFNTIEEAGKYGVKNIILREKDLSTKELIKIYIKIKELVTEETNIIINSNIEATMILKEKFIHLSFKDFKRNLEEVKSLQVGVSVHSILEAIEADRLGASYILVSPIFETQCKKGVTPKGINFIKEIKEKVNCNVIALGGINEHNFKEVLGAGADDFACMSLLFMSNNIKKSLYTFKSLEGHHHHHH | not soluble
5 | MSLFLQPLLAKKIIAEVKKMYEREVIIVNTDGLIMAGTNDERVGQFHEGALICAKERRSVIITKEDETRLKGVKAGINLPVFFDHDVISVFGLTGEPAEIQPFGELLRKMTELFIKESRHLEQSQWRERMLESFMIDWLQLKEWSPSFLEKAQLLGVDLSSRRQMILIQGYEWSPHDIEQMARSWKSSYPADLFIRWGNERILINHEVPQHEQRDRLLRKILHICSFANTASSQYTAAGAGRAVASSSLTDSYEQAEKALAVSLKRKTPIFEEDLKLDMCLTEISPGTRNEFPQRVLGKALEHQELMNTIRTFFHHDLSLKQTAEDMHIHINTLRYRLAKAEQLTGLRFDRTEDVVTMYVALYFLDQDTKEGGSHHHHHH | soluble
6 | MSLFSISNLSFIGFLKRIVFSSDSLPGKWEHRKFRFMYILRCSINPVVSIRYYYELRSLPCIEDILAIHPTLPARIHRPYLHKGGRAWTRGQYILEHYRFVQNLPEKYSKFLFPQKSVSLVQFIGKDGENFDIQCSPSGFDREGELMLSLFYNKTVIARLTYSVILTQNGHIAFIGGLQGAPKNTGPDVIRCATRACYGLFPKRIIFEAFCALMKACNVSECLAVSEHSHVFRQLKYWYQKRKTFVAVYSDFWDSVPGKTCGDWYKLPTQVIRKPLTDIPIKKRSDYRKQYALLDYIHETTIRSLDAYPVHSKHQNSNEGHHHHHH | not soluble
7 | MSLGDITISFESSDIDRHLILGVDWLIEGNLYEDAVESSIALSRRFLLNGKVKSLEMFLDEKPIDDLLKNYQLSKIHEMDVDSTEDTSVLEIQQYRYLINIFKQYMEWEKTVKLLNSESNIPSIIEKFQEFFQSTFKLIKTFLVDLTENIDHKDHDILFEIRALYTPYLIMELHKGLVEAASLLRIPRFIKDALNITNLVANEDDKIYLLFQSSGKLKEYLQLVAQTATLTEGHHHHHH | soluble
8 | MSLGDQTLVRELSPLKNKGESTFRMGLYIRDSAAGVGTLTFYDPVSKKYGALGHVISDVDTKKPIVVHDGQIIRSSVTSIDKGSNGDPGEKLASFSNQRNTLGTIEKNSSFGIFGTLTEKDLKNHVSDEALPVTLSNHVKEGPAKILTVVEGEKVEEFDIEIVSSVPQKQPATKGLVIKVTDPKLLNTTGGIVQGMSGSPIIQDGKLVGAVTHVFVNDPTSGYGCHISWMLEEAGITFDQSKAKASEGHHHHHH | soluble
9 | MSLGEAEARVVLNMNTGWAFHRGEVESGGQPGLDDSGWIAAIIPHIMQLEKKHCGGDIIYDGVGWYRRTFRVPSQYKDKQIKISFEGVMNACEVYLNGQKISAHRGGYVGFVTDITTRINWDRDNLLAVRVSAEYDPLTPPGKPQAGMDFYYYSGIYRDVEMVISDPLHITHALEEEEVAGGGIFVTYPVVGKEKAVTHVKAHVRNEGKRKRKAQLRTQLIDKSGKIVACQLTPFRLSAGEAIHLEQNLEIVHPSLWHPYDPNLYTLQNEIVENGKVVDCHTESIGIRTIAYTRDGGFYINGESLYLRGANRHQAFAHIGDAAANSMQERDVIDLKRGGCNAVRAAHYPQDPAFLAACDKYGLLVVECIPGWQYFKNDSTFISRLYEVGKQMIRRDRNHPSVILWETALNESRYPAEIARNLYAIAHIEYPGDQMYTAGDYFGHADRVDCFDVFYKQVSRFPKDGDVMSNYPEDQIAVKPLFCREWGDGVGEKPRVSLMENEEEQLKQCRGRFLQLNGHGYFDWCMLDANPRMGGHFLWSYNDYARGAEQETMFCGIVDINRYPKFSYYMMQSMRDKEISQPGLYDGPMVFIASQNTASRYVSSVNEITVFSNCDEVRLFRNHHLIGKQMRKERTPLYRSIVEKGGSPCYVFNAGTYEAGELVAEGIVDGKVVATHSVRTPEQPRQVKIWLKEENIQPVADGSDMIPVYFKVCDSNGTLVNTSDVRIHISVSGEGSLIGDGIERIGINPQLVEGGVGYALIRTTCRPGKIHISVTADGLRGDTREIVTRRYDGEGHHHHHH | not soluble
10 | MSLGEKSRETSSPWSSTILLVKITSADGLVGYGEAPTTLMTLPVLESMKEVARVFNGKDFFNVERNVFDFYRNSFYLPVSMEATSALSAFEIASWDLIGKQLGTPVYKLLGGEVNQKMRAYANGWYNDCVSPDDFLKKAKEVVKMGFTAMKFDPFGDNYDSITNDGLENARNIVGTLRSELGDKVDLLIEYHGRFSKIAAIKAGMALEEYHPFFYEEPLHPDLDHDLLDLKNYYRVPIALGERVLNKKIFARFISQKLVDIIQPDLTNSGGILEGKKIAAIADGFGIPVAPHNAFGPIQTAATLNLDTTITNFIIQESFEMFWPDWKKKLVSSGYKLENGYFTLTNEPGVCKVNEDIVEKYQVSGMEPFDDKEPPWVVSGTFKPYRQKEGHHHHHH | not soluble
11 | MSLGELLFNRSFENTKPVSESNSWYTCYRGDVKEAKWWHSGYEEPKWYLLADGRKEEKLPLIFNNYWPSAHGKYFLQIDNRKKQIPTLLVQERIYIEKGKGYTVSGLFSSGGYLSEEKYSKESVPVTIAIYKEGDFHTPLSKTELAVNTNQFILYSSSLDATEYEGWCTYTIEVPAGGCVGIDLLSLMADDVIKGWKRESVERIKNELRPRTMRMPGGCFTSLYDWRSGIGPREERPVSYDTWWGCELLNDVGTFELVDLCEAVGAEPFFCVPVMFNNEYSAADWVDFCNNPTNAQRIAYGRTKPLNVKYWELENEPYRRFDAVTYANRCVDFAKAMKAKDPSIKIAVGNYWLFNKKFKEMLEIVGPYVDLITNRGGTPEEMRADIVILDAYNKAHGTDIKLCHTEFRAPVTRNEGNTDGLNQKDTGGEETLFNASIRWGFAMNMVEQYIAYQNMGGSFFTANYTNLSDGWGECLINTPKEGTYLNAPGVAFALLNSLDIAYPQIIEQEKENQDIVIQAAWNKRRDKLTLVVLNFSQNTQPCKIDFSQIKKSFRVRKGMKIAPQSDLSFNTLQHPEEVKVEEGHHHHHH | soluble
12 | MSLGGDQAAGAVLPVTIFTARKFITMERGAPEATAVAVAGKRIVAAGSLAEVKTAVGSRPFTLDETFASKIVMPGLIDQHLHPVLGALTLAVEVIAPEDWVLPGGTHKAAGSADAYQARLKAADAKLDKPDAWLLTWGYHALWHGKLDRAALDAINPTRPIAVWHRSCHEFYLNTPALAALGISEAMTQNQGQASEQSNWREGHFWEGGLNLMMTPMLKVLATPERLAFGLKQMVSYLHANGVTAYMEPGALYTPDMWKLYEQILGAPETPMYATFIADGRGIVDRVGLDGALDAVEQQIAVAPEAPGRKLMFFPGQIKLFADGAIISQLMQMKDGYLDGHQGEWIIPPDELERRARLFWNAGYQIHTHVNGDLGLEKLLDILEKLNAEHPRPDHRSVIVHFANSTEDQVARIKRLGALVSANPYYTTGFADKYSAVGLGPERADAMVRAKSVLDQGVPLSYHSDLPMAPSAPLYLAWCGVNRLTPSGRVAGPEQRVSVDAALRAITIEAAYSWRHEDQLGSIAPGKIANFTVLEQDPYAVPPEQLKDVPIWGTVFEGRVFPVGREGHHHHHH | soluble
13 | MSLGIKMRSVVVKEPGQLNIESRPVPVPGAHEVRVKIAFAGICGSDVHIYHGHNPFAKYPRVIGHEFYGIIDAVGEQVSPARIGERVAVDPVVSCGHCYPCSVGRPNVCTQLQVIGVHRDGGFSDYACVPAKNAWRIPEAISDRQATMVEPFTIAANITAQLQPTAQDIALVYGAGPMGLTIIQALKGVYGVKQVIVVDRIAERLQMARENGADLTLDNTDQPLAEQLAQRQLAPTLVIDAACHPAILQEAILLASPAARIGILGFSGEASTLTQQSITSKEISIFSSRLNSGRFPLVIDWMEKGLIRPEALITHCMPLEQVKEAMEIFANDRKTCCKVLLQLGEGHHHHHH | soluble
14 | MSLGKDIKVGYNWELSGNVSSYGNSMKNGADLAVKEINAAGGVGGKKLKVLSQDNKSENAEAATVATNLVTKGANVIIGPATSGAAASSTPKVNAAAVPMIAPAATQDNLVYGSDGKTLNQYFFRATFVDNYQGKLLSQYATDNLKAKKVVLFYDNSSDYSKGVAKSFKESYSGKIVDSMTFSAGDTDFQASLTKLKGKEYDAIVMPGYYTETGLIVKQARDLGISKPVLGPDGFDSPKFVQSATPVGASNVYYLTGFTTQGSTKAKAFHDHYVKAYGEEPSMFSALSYDAVYMAAKSAKGAKTSIDIKKALAKLKDFKGVTGKMSIDKNHNVVKSAYVVKLEDGKTSSVNIISAKEGHHHHHH | soluble
15 | MSLGKKDKRWVLQRKNDHYYNLAKKRNYRSRATYKLFQLNEKFNLIKERNVVVDLGCAPGGWLQAARDIVGDKGFIVGIDLQTVKPLPYENVIAIKGDMTKEEILKQARDLLPEKPDVIICDASPNISGVWDVDHARSLELTTMALMTATKMLKKGGNFVVKVFQGDLFEKYVQLVSEYFDKAFTTKPRASRDESAEVYVIGKRFNGRKFDMNSKSPIVKLLDTNPKENEITSPSLRKDISKEDSGLMIKRIKEMRSKKEGHHHHHH | soluble
16 | MSLGNFHTMLDALLEDQEEAVLATIVQVEGSAYRKAGASMLFKKKGRRIGLLSGGCVEEDVFQRISALGDQLTSTLIPYDMRSEDDLSWGMGAGCNGIIHVHAERITQEKRRHYEKVRDCLHSGKAVTSVIKIESSHYLFLTENGHFGNWPDAPLQDIQRTVSTLHLPHFDQTTNMFIQRIEPKPRLILFGAGPDNVPLANLAADTGFSVIVTDWRPAYCTSSLFPKADQLITAFPEQMLSEFQFFPHDAAVVATHHYQHDQTIINFLFSQNLHYIGLLGSANRTKRLLSGKHPPSHFYSPVGLKIGAEGPEEIAVSVVAEIIQTRKRVAVVEGGSHHHHHH | soluble
17 | MSLGQKGHKDSLYPCGGTPESSLHEALDQCMTALDLFLTNQFSEALSYLKPRTKESMYHSLTYATILEMQAMMTFDPQDILLAGNMMKEAQMLCQRHRRKSSVTDSFSSLVNRPTLGQFTEEEIHAEVCYAECLLQRAALTFLQDENMVSFIKGGIKVRNSYQTYKELDSLVQSEGHHHHHH | not soluble
